Laboratory results published in PMC4305291.

Molecular target: integrin αIIb_W968C (human)
Experiment: cross-linking; disulfide between engineered cysteines in cells; S35-labelled CHO cells lysed, immunoprecipitated with anti-αIIb mAb 10E5 and protein G-Sepharose, SDS-PAGE with or without 2 mM DTT, radioautography

integrin β3_I693C (from UniProt P05106 27-788) (natural protein)
efficiency of disulfide formation: 100%
